Experiment [1] has as its target T1, human ADAM 9 catalytic/disintegrin domains (human, UniProt Q13443 206-697, limits assumed).
T1 construct: domain: catalytic/disintegrin domains; Bought; also called ADAM 9 (human)
T1 sequence (looked up): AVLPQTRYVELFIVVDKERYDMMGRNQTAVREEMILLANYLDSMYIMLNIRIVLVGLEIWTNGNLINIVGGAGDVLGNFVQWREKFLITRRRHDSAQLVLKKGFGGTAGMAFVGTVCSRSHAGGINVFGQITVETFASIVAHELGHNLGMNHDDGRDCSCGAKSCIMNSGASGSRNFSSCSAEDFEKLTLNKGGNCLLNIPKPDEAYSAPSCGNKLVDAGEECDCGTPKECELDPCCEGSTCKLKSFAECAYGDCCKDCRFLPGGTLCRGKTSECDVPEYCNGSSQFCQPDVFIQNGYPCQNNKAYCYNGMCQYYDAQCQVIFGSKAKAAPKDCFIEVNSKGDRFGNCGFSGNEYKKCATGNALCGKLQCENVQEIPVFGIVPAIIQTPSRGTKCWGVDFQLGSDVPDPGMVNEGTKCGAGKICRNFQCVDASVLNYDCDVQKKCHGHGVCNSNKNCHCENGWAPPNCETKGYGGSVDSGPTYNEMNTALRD
The experiment can be described thus: enzyme inhibition, fluorescent peptide substrate. As to the method:
(§1) Inhibition assays with ADAM 9. The fluorescent substrate, Dabcyl-PchaGC(Me)HAK(Fam)-NH₂ (SEQ ID NO 19) (10 μM), in a buffer containing 25 mM Tris, pH 8.0, 0.0006% Brij-35, was used to measure human ADAM 9 catalytic/disintegrin domains activity. The ADAM 9 was provided as a 0.1 μg/μl stock solution, from which 3 μl was added to start the reaction in the absence or presence of ADAM10 prodomain (78-5000 nM). Fluorescence intensities were measured every 10-20 minutes at excitation and emission wavelengths of 485 and 530 nm respectively.
Calculation of inhibition constants. The amount of activity was calculated by subtracting the ADAM 10 prodomain control from the ADAM 10 prodomain with enzyme. All inhibition assays were performed at room temperature and the data fit to the following equation using Sigma Plot software: […]

In experiment [2] the target is T2, Human TACE protease containing the catalytic/disintegrin domains (human, UniProt P78536 215-671, limits assumed).
T2 construct: domain: catalytic/disintegrin domains; Bought; also called TACE (human) Cat/Dis; TACE catalytic/disintegrin
The experiment can be described thus: enzyme inhibition, fluorescent peptide substrate. As for the experimental part: (§2) Inhibition assays with TACE and ADAM 10. Activity of TACE catalytic/disintegrin, TACE catalytic, or ADAM10 catalytic/disintegrin constructs was monitored at 3 minute intervals using the fluorescent substrate, Dabcyl-LAQAHomoPheRSC(Fluorescein)-NH₂ (SEQ ID NO 17) with excitation 485 nm and emission 530 nm. The substrate was diluted from a 10 mM stock in DMSO to 10 μM in assay buffer containing 20 mM Tris, pH 8.0, and 0.0006% Brij-35. Reactions were run in a 96-well black-coated plate with either ADAM10 prodomain (10 nM-1.0 μM) alone or with enzyme. Concentrations of enzyme ranged from 0.5-2.0 nM for TACE and 5-15 nM for ADAM10. For assays with TACE and ADAM8 prodomain, the range of concentrations varied from 1-4.7 μM.
(§3) Inhibition assays with MMPs. The fluorescent substrate Dabcyl-[…](Fluorescein)-NH₂ (SEQ ID NO 18) (10 μM) in assay buffer containing 50 mM Tris, pH 7.5, 150 mM NaCl, 2 mM CaCl₂, 5 μM ZnSO₄, and 0.01% Brij-35 was used to monitor enzyme activities. MMPs 1, 2, 3, 9, 13, and 14 (0.1-20 nM) were incubated with substrate in the absence or presence of prodomain (3-30 μM). Fluorescence intensities were measured every 3-5 minutes at an emission wavelength of 530 nm (excitation 485 nm).
as §1

The target in experiment [3] is T3, TACE catalytic domain (human) (human, UniProt P78536 215-477, limits assumed).
T3 construct: domain: catalytic domain; also called TACE (human) Cat
The experiment can be described thus: enzyme inhibition, fluorescent peptide substrate. As for the experimental part:
as §2, §3, §1

For experiment [4], the target named is T1, human ADAM 9 catalytic/disintegrin …. The experiment can be described thus: enzyme inhibition, fluorescent peptide substrate. As for the experimental part:
as §2, §3, §1
This is another data set of the same source.

For experiment [5], the target named is T4, ADAM 8 catalytic domain (mouse) (mouse, UniProt Q05910 196-395, limits assumed).
T4 construct: domain: catalytic domain; also called ADAM 8 (mouse); ADAM 8 (mouse) Cat
T4 sequence (looked up): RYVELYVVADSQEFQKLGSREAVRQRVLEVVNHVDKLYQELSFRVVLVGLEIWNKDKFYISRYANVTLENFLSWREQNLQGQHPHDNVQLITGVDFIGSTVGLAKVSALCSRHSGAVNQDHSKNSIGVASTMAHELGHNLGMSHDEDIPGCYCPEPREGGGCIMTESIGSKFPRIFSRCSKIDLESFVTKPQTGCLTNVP
The experiment can be described thus: enzyme inhibition, fluorescamine assay with Dnp peptide substrate. As to the method: Inhibition assays with ADAM 8. The ADAM 8 catalytic domain was expressed and purified from E. coli as described (22). A substrate based on the L-selectin cleavage site, Dnp-INorIeu[…]-NH₂ (SEQ ID NO 20), was used to monitor enzyme activity with a fluorescamine assay. From a concentrated 50 mM solution in DMSO, the substrate was diluted 1:500 in 25 mM HEPES, pH 8.0, 0.0006% Brij-35. To 100 μl of diluted substrate was added either 5 μl of buffer (Tris, pH 8.0, 150 mM KCl) or 5 μl of ADAM10 prodomain (1-10 μM). Zero time points were taken by diluting 12.5 μl of the reaction mixture into 100 μl of fluorescamine buffer (50 mM HEPES, pH 8.0, 0.2 M NaCl, 0.01 M CaCl₂, 0.01% Brij-35) in a 96-well black-coated plate. Before measuring fluorescence, 3 μl of a 1% solution of fluorescamine in DMSO was added to each well. The plate was allowed to incubate for 10 min in the dark before measuring fluorescence (excitation wavelength at 390 nm, emission wavelength at 485 nm). For assays with TACE and ADAM8 prodomains, a fluorescent substrate was used to monitor activity at concentrations of prodomains ranging from 1-4.7 μM.
Calculation of inhibition constants. The amount of activity was calculated by subtracting the ADAM 10 prodomain control from the ADAM 10 prodomain with enzyme. […]

Experiment [6] has as its target T5, Human ADAM10 protease containing the catalytic/disintegrin domains (human, UniProt O14672 214-672, limits assumed).
T5 construct: domain: catalytic/disintegrin domains; Bought; also called ADAM 10 (human) Cat/Dis; ADAM10 catalytic/disintegrin construct
T5 sequence (looked up): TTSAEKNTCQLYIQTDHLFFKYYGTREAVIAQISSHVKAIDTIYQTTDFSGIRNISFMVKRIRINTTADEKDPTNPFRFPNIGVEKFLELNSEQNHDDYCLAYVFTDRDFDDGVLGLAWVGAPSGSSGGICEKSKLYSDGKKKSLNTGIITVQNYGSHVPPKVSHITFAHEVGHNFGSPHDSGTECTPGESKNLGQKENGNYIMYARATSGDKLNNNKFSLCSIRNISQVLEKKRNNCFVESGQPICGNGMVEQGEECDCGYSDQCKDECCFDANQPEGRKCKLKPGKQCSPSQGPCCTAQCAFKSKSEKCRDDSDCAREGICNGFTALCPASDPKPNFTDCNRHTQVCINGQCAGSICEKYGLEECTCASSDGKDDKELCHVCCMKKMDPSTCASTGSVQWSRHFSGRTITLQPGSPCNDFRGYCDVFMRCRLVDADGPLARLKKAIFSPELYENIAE
The experiment can be described thus: enzyme inhibition, fluorescent peptide substrate; fit to a pure competitive model. As to the method: ADAM 10 protein was diluted 1:100 in buffer 25 mM Tris pH 8, 0.0006% Brij-35 and then 10 μl was added to 88 μl of substrate (20-100 μM), Dabcyl-LAQAHomoPheRSC(Fluorescein)-NH₂ with excitation 485 nm and emission 530 nm. Prodomain, 2 μl, in 25 mM Tris, pH 8, 100 mM NaCl, 10% glycerol, 0.1% mercaptoethanol, and 50 μM CaCl₂ was added to substrate before addition of enzyme. The final concentration of prodomain ranged from 17-170 nM. The fluorescence vs time was plotted, and slopes were taken from straight line fits of initial velocities. The reciprocal of the velocities was plotted vs the reciprocal of substrate squared since the normal Lineweaver Burke plot gave curved lines. The initial velocities vs substrate concentrations were fit as a family of curves to several allosteric models. The data fit best to a pure competitive model as described in the following equation where binding of inhibitor prevents substrate from binding to both sites: […]

The target in a further experiment is T6, MMP 2.
T6 construct: also called matrix metalloproteinase 2
The experiment can be described thus: enzyme inhibition, fluorescent peptide substrate. As for the experimental part: as §2, §3, §1

The target in a further experiment is T7, MMP 3.
T7 construct: also called matrix metalloproteinase 3
The experiment can be described thus: enzyme inhibition, fluorescent peptide substrate. As to the method: as §2, §3, §1

Another experiment has as its target T8, MMP 9.
T8 construct: also called matrix metalloproteinase 9
The experiment can be described thus: enzyme inhibition, fluorescent peptide substrate. As for the experimental part: as §2, §3, §1

The next experiment concerns the target T9, MMP 13.
T9 construct: also called matrix metalloproteinase 13
The experiment can be described thus: enzyme inhibition, fluorescent peptide substrate. As for the experimental part:
as §2, §3, §1

The target of a further experiment is T10, MMP 14.
T10 construct: also called matrix metalloproteinase 14
The experiment can be described thus: enzyme inhibition, fluorescent peptide substrate. As for the experimental part: as §2, §3, §1

The target in experiment [7] is T5, Human ADAM10 protease containing the …. The experiment can be described thus: enzyme inhibition, fluorescent peptide substrate. As to the method: as §2, §3, §1
A further experiment addresses T11, MMP 1.
T11 construct: also called matrix metalloproteinase 1
The experiment can be described thus: enzyme inhibition, fluorescent peptide substrate. As to the method:
as §2, §3, §1

Like-named read-outs stand apart in the source and are kept apart here. Bounds are passed on as bounds.

T2 sequence (P78536 215-671 limits assumed): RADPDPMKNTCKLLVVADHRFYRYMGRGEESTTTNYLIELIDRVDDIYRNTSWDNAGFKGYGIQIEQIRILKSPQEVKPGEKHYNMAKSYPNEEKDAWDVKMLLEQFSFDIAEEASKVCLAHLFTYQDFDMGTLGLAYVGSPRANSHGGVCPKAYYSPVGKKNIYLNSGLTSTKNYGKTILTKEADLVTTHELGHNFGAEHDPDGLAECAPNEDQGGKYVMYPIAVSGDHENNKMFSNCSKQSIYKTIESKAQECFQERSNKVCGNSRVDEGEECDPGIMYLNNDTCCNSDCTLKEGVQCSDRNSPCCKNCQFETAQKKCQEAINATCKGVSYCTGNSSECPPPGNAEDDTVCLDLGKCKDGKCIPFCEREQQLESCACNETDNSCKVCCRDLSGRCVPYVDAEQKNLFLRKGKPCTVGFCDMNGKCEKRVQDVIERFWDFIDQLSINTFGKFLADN
T3 sequence (P78536 215-477 limits assumed): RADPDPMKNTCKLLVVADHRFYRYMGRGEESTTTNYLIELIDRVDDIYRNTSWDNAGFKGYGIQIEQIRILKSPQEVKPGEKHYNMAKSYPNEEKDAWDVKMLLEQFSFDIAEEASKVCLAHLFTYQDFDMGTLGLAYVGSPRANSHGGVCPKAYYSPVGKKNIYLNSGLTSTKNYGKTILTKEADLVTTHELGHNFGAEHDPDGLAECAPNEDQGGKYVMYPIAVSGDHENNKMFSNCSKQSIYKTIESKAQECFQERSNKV
T7 sequence (P08254 100-477): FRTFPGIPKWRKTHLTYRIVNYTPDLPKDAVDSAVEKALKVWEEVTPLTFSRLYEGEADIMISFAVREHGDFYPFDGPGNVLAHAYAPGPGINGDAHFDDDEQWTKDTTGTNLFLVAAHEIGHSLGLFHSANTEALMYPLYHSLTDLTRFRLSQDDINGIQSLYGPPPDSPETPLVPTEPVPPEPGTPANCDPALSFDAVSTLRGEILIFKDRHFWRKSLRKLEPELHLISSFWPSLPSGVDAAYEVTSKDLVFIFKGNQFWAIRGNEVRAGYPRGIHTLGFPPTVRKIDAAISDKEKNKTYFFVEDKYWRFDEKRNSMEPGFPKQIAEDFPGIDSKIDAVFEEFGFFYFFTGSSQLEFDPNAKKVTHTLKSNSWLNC
T6 sequence (P08253 110-660): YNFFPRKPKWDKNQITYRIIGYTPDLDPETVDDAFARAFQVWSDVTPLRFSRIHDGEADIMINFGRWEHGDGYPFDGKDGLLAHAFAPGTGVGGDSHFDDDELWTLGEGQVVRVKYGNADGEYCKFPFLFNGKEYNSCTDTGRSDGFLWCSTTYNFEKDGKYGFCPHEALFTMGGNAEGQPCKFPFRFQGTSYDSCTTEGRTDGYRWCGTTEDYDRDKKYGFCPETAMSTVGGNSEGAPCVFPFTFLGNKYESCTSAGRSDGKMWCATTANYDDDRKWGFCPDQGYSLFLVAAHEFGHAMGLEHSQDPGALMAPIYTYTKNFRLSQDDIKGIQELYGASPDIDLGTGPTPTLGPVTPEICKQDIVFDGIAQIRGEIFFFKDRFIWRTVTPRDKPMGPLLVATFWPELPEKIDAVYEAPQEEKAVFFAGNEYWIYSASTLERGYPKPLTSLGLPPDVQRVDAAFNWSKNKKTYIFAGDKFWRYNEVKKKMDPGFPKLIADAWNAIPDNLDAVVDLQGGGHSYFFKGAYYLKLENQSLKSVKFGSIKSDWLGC
T11 sequence (P03956 100-469): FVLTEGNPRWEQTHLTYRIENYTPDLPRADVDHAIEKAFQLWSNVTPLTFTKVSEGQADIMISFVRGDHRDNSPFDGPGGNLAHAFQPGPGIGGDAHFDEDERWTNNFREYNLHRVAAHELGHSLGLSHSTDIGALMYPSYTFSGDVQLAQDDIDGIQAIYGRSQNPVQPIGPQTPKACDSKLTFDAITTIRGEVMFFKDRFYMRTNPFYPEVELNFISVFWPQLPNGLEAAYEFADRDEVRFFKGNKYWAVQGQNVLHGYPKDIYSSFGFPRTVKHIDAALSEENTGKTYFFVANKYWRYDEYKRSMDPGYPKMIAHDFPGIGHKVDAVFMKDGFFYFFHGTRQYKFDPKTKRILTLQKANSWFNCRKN
T8 sequence (P14780 107-707): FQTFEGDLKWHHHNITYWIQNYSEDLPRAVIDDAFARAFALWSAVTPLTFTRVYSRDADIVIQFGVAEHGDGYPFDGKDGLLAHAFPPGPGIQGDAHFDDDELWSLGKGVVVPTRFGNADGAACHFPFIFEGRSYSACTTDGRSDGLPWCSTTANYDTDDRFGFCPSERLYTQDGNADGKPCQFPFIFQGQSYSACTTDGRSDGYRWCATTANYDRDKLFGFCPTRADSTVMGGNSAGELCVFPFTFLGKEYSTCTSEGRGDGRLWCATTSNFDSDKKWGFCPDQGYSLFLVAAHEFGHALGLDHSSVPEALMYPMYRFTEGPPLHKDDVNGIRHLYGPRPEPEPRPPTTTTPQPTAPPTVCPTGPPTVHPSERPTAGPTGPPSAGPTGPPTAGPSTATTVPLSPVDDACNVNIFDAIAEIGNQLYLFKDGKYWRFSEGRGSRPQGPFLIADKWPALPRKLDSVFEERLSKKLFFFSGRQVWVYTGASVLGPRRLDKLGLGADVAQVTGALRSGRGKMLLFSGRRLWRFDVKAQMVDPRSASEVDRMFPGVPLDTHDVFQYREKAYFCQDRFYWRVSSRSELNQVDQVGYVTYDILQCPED

B1: wt ProADAM 10 23-213 (C-terminal His tag) (other)
chain: NPLNKYIRHYEGLSYNVDSLHQKHQRAKRAVSHEDQFLLLDFHAHGRQFNLRMKRDTSLFSDEFKVETSNKVPDYDTSHIYTGHIYGEEGSFSHGSVIDGRFEGFIKTRGGTFYIEPAERYIKDRILPFHSVIYHEDDINYPHKYGPQGGCADHSVFERMRKYQMTGVEEGARAHPEKHAASSGPELLRKKHHHHHH
notes: the wild type has Cys there
For orientation: Ki means a dissociation constant, usually derived from enzyme kinetics or from competition with a known ligand. Low readings indicate higher affinity, high ones lower affinity. Regarding B1, the Ki in experiment [1] is roughly 1000 nM; in [2], greater than 10000 nM; in experiment [3], greater than 11000 nM; in experiment [4] it was greater than 1000 nM; in [5], greater than 10000 nM; in experiment [6] it was 48 nM.

B2: wt ProADAM 10 23-213 (N-terminal His tag) (other)
chain: NPLNKYIRHYEGLSYNVDSLHQKHQRAKRAVSHEDQFLLLDFHAHGRQFNLRMKRDTSLFSDEFKVETSNKVPDYDTSHIYTGHIYGEEGSFSHGSVIDGRFEGFIKTRGGTFYIEPAERYIKDRILPFHSVIYHEDDINYPHKYGPQGGCADHSVFERMRKYQMTGVEEGARAHPEKHAASSGPELLRKK
notes: Expressed in E. coli, purified on Ni-NTA and Superdex-75; the wild type has Cys there; not shown: N-terminal His tag and leader encoded by the pRSET vector (insert at BamHI/EcoRI)
Consider B2, for which the Ki with MMP 2 is greater than 2000 nM; with MMP 3, greater than 2000 nM; with MMP 9, greater than 2000 nM; with MMP 13, greater than 2000 nM; with MMP 14, greater than 2000 nM; in experiment [7] it was 75 nM. Besides, the inhibitory constant (Ki) was greater than 3000 nM in experiment [2], greater than 11000 nM in [3] and greater than 2000 nM in the experiment with MMP 1.

The values above are taken from patent US20100081620A1 (BIOZYME, published 2010).
